Data reported in US20110143993A1, “ENDOTHELIAL BASEMENT MEMBRANE TARGETING PEPTIDE LIGANDS” (The Brigham and Women's Hospital, Inc., priority 2009, published 2011).
No end group written: not given here.

Assays:
[1] = biological target: Matrigel growth factor reduced LDEV free (basement membrane extract rich in collagen IV and laminin); test: competition of phage-displayed peptide against synthetic peptide on Matrigel
[2] = biological target: Matrigel growth factor reduced LDEV free (basement membrane extract rich in collagen IV and laminin); test: competition ELISA: synthetic peptide (10^-5-10^-10 M) against 10^9 pfu cognate phage clone on Matrigel-coated plate, anti-M13/ABTS
[3] = biological target: human collagen IV (human) (UniProt P02462); test: phage titer count of eluted phage, input 10^12/mL p.f.u., against random library R0, n=3

What does the source list for KLWVLPKGGGC-NH2 [synthetic peptide modeled after phage clone C-11 (…-Am)]?
IC50 [1]: 114 nM; IC50 [2]: 117 nM

How did the IC50 [2] turn out when KIFVWPYGGGC-NH2 [synthetic peptide modeled after phage clone A-9 (KIFVWPY with C-terminal GGGC linker, amidated)] was run?
Its IC50 is 551 nM.

Which IC50 [2] does the source give for KIWKLPQGGGC-NH2 [synthetic peptide modeled after phage clone C-10 (KIWKLPQ with C-terminal GGGC linker, amidated)] here?
Its IC50 is 917 nM.

How did the IC50 [2] turn out when KVWSLPQGGGC-NH2 [synthetic peptide modeled after phage clone A-8 (KVWSLPQ with C-terminal GGGC linker, amidated)] was run?
The IC50 was 1200 nM.

How did the fold binding compared to the library (R0), phage titer [3] turn out when KLWVLPK (peptide, not shown: large carriers) [phage clone C-11 (KLWVLPK displayed on pIII of M13 phage)] was run?
The fold binding compared to the library (R0), phage titer was 900 fold.
